Measured values: patent publication US20050223436A1, “EPSP synthase highly tolerant to glyphosate” (priority 2003, published 2005)

Columns and labels:
E. coli JM109 = assay: Glyphosate tolerance of E. coli JM109 transformants on MOPS media plates; type: cell-based; settings: bacteria transformed with DNA encoding the enzyme (summary of Example 1)
Text: A SuperCos1 Cosmid Vector kit (Stratagene Co., Ltd) was used to construct a community genomic DNA cosmid library. The community genomic DNA was digested with restriction endonuclease Sau3AI at 0.006 unit/microgram purified DNA. DNA fragments of about 40 kb were collected using the freeze-thaw method, and then ligated with SuperCos1/BamH1 vector. A cosmid genomic DNA library was constructed according to the manual of Stratagene Co., Ltd. For screening of glyphosate tolerant clones, JM109 E. coli was used as the acceptor bacterium for the genomic library construct, as glyphosate is only effective on an inhibitory medium such as M9 and MOPS. The ligated DNA was packaged into lambda phage particles (Stratagene, Gigapack Gold) according to the manufacturer's protocol. E. coli strain JM109 was infected with the packaged product. The transformants were selected on tetracycline LB media. Positive clones were then plated on LB media containing tetracycline and tetracycline+kanamycin, respectively. Clones growing on both media were considered as negative recombinants resulting from vector ligated with vector DNA. The number of positive transformants was calculated as the total number of colonies minus background false negative colonies. This number was used to determine the titer of the genomic library, which was 4×10^6 pfu/ml, meeting the requirement for library construction (>10^6 pfu/ml). […]

tobacco = assay: Glyphosate tolerance of transgenic tobacco; type: in vivo; settings: transgenic plants, greenhouse assays
Protocol: (4) Transformation of tobacco was carried out according to the leaf disc transformation protocol, using sterilized tissue of a healthy leaf of about 2 weeks old. The main vein was removed and the leaf was cut into small pieces of 2 cm^2.
(8) After development of the roots, plants were taken out. The attached solid culture media was washed off with sterile water. The plants were initially kept in a high humidity environment such as a plastic container with a glass cover for a few days. After the plants had grown stronger, the glass covers were removed, and the plants were transferred to solid culture media containing 10 mM glyphosate for screening of glyphosate tolerant plants.
(10) Glyphosate tolerance assays in greenhouse also confirmed that the transgenic plants could grow well in media containing 15 mM glyphosate.

B1: EPSP synthase: novel 444 amino acid EPSP synthase highly tolerant to glyphosate, encoded by SEQ ID NO:1/3 (protein, listed as Unknown bacterium)
chain: MACLPDDSGPHVGHSTPPRLDQEPCTLSSQKTVTVTPPNFPLTGKVAPPGSKSITNRALLLAALAKGTSRLSGALKSDDTRHMSVALRQMGVTIDEPDDTTFVVTSQGSLQLPAQPLFLGNAGTAMRFLTAAVATVQGTVVLDGDEYMQKRPIGPLLATLGQNGIQVDSPTGCPPVTVHGMGKVQAKRFEIDGGLSSQYVSALLMLAACGEAPIEVALTGKDIGARGYVDLTLDCMRAFGAQVDAVDDTTWRVAPTGYTAHDYLIEPDASAATYLWAAEVLTGGRIDIGVAAQDFTQPDAKAQAVIAQFPNMQATVVGSQMQDAIPTLAVLAAFNNTPVRFTELANLRVKECDRVQALHDGLNEIRPGLATIEGDDLLVASDPALAGTACTALIDTHADHRIAMCFALAGLKVSGIRIQDPDCVAKTYPDYWKAWPSLGVHLND
glyphosate concentration of media in which transformed bacteria grew (E. coli JM109): 10 to 150 mM
glyphosate concentration in which transgenic tobacco grew (tobacco): 15 mM
